Assay results reported in publication PMC9386465.
Read-outs that look alike come from different tables or passages of the source.

Key:
[1] = target: T1, ErmS (TlrA) rRNA adenine-N6 dimethyltransferase (Streptomyces fradiae, UniProt P45439 1-319); assay: stopped-flow fluorescence
T1 sequence: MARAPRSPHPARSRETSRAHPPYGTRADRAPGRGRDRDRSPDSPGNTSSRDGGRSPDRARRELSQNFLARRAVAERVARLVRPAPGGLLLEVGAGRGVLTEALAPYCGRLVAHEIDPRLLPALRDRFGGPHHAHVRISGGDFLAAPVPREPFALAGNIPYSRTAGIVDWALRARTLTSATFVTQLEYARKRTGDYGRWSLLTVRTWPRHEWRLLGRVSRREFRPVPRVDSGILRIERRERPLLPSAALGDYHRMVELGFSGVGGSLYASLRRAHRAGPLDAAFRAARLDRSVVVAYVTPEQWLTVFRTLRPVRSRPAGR

[2] = target: T1, ErmS (TlrA) rRNA adenine-N6 …; assay: stopped-flow fluorescence; remark: listed apart in the source

## GGCAAGACGGAAAGACCCCUAUCUGCC (structured_RNA, 2-aminopurine replaces A2058 (nt 11)) [2Ap2058]
[1]
  binding result: binds

## GGCAAGACGGAAAGACCCCUAUCUGCC (structured_RNA, 2-aminopurine replaces A2054 (nt 7)) [2Ap2054]
[2]
  binding result: binds
